According to CN101066999A:

How the values were obtained:
[1] = substrate: 人OPN (Osteopontin, R&D Systems) (human) (UniProt P10451); experiment: sandwich ELISA: mAbs coated at 1.0 μg/ml; OPN at 6.25-100 pg/mL for this mAb and 6.25-100 ng/mL for the commercial mAb
[2] = substrate: 人OPN (Osteopontin, R&D Systems) (human) (UniProt P10451); experiment: sandwich ELISA: mAb coated at 1.0 μg/ml, OPN standard, rabbit anti-human OPN polyclonal serum as detector

B1: 重组抗OPN单克隆抗体 7G2 (antibody, V domains shown)
VL: DILMTQTPLSLPVSLGDQASISCRSSQSLVHSNGNTYLHWYLQKPGQSPKLLISKVSNRFSGVPDRFSGSGSGTDFTLKISRVEAEDLGVYFCSQSTHVPWTFGGGTKLEIKR
VH: MAQVQLEQSGPELVKPGASVKMSCKSSGYTFTTYVMHVKQKPGQGLEWIGYINPYNDGSKYNEKFKGKATLTSDKSSNTAYMELSSLTSEDSAVYYSDSHYGGSPAYWGQGTLVTVSA
B1 gave a fold higher sensitivity for human OPN than the commercial mAb MAB14331 [1] of 1000 fold and a 灵敏度 (detection sensitivity for OPN) [2] of 6.52 pg/mL.
